In patent US20220033508A1 (ADC THERAPEUTICS, published 2022):

T1: IL13RA2 on NCI-H1299 cells (human, UniProt Q14627)
T1 construct: cell-surface protein on NCI-H1299 cells; Cell-borne form of the target; It is kept apart from m1, which is the recombinant His-tagged extracellular domain; The sheet's title names the antibodies 'anti-IL13RA2 IgG' and the cells 'NCI-H1299 cells'; also called IL13Rα2; Interleukin-13 receptor subunit alpha-2
T1 sequence (receptor chain, looked up): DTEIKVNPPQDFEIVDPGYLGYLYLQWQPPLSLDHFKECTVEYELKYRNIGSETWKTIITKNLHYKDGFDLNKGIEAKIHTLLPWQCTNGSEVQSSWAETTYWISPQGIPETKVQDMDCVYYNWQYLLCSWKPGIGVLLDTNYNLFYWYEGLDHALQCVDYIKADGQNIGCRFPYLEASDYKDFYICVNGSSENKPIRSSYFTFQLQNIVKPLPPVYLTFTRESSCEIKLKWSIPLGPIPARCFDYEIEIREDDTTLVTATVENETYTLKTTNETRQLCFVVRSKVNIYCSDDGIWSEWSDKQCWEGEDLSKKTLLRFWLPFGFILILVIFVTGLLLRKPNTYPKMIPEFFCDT

T2: Recombinant human extracellular domain of IL13RA2-6His (27-343) (human, UniProt Q14627 27-343)
T2 construct: also called Human IL13RA2-6His; human IL13Rα2
T2 sequence: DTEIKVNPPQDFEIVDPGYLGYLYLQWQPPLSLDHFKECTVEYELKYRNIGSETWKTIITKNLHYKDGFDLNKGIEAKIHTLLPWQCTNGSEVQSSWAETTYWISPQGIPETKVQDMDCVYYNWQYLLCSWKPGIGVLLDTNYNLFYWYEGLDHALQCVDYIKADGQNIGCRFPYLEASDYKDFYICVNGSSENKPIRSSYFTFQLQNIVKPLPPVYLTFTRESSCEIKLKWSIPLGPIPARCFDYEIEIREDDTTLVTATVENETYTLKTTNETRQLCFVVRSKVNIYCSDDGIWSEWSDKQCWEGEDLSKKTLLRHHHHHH

B1: Clone 47 VHA / Clone 47 VKA (HuCL47) (antibody, V domains shown)
VH: QVQLVQSGAEVKKPGASVKVSCKASGYTFSNYLMNWVRQAPGQGLEWMGRIDPYDGDIDYNQNFKDRVTITRDTSASTAYMELSSLRSEDTAVYYCARGYGTAYGVDYWGQGTSVTVSS
VL: EIVLTQSPATLSLSPGERATLSCRASESVDNYGISFMNWYQQKPGQAPRLLIYAASRQGSGIPDRFSGSGSGTDFTLTISRLEPEDFAVYYCQQSKEVPWTFGGGTKLEIK
notes: Expressed as IgG in Expi293 cells; also called VHA/VKA; VHANKA
B2: Clone 47 VHAback / Clone 47 VKA (antibody, V domains shown)
VH: QVQLVQSGAEVKKPGASVKVSCKASGYTFSNYLMNWVRQAPGQGLEWIGRIDPYDGDIDYNQNFKDRATLTVDKSASTAYMELSSLRSEDTAVYYCARGYGTAYGVDYWGQGTSVTVSS
VL: EIVLTQSPATLSLSPGERATLSCRASESVDNYGISFMNWYQQKPGQAPRLLIYAASRQGSGIPDRFSGSGSGTDFTLTISRLEPEDFAVYYCQQSKEVPWTFGGGTKLEIK
notes: Expressed as IgG in Expi293 cells; also called VHAback/VKA
B3: Clone 47 VHA / Clone 47 VKA1 (antibody, V domains shown)
VH: QVQLVQSGAEVKKPGASVKVSCKASGYTFSNYLMNWVRQAPGQGLEWMGRIDPYDGDIDYNQNFKDRVTITRDTSASTAYMELSSLRSEDTAVYYCARGYGTAYGVDYWGQGTSVTVSS
VL: EIVLTQSPATLSLSPGERATLSCRASESVDNYGISFMNWFQQKPGQAPRLLIYAASRQGSGIPDRFSGSGSGTDFTLTISRLEPEDFAVYYCQQSKEVPWTFGGGTKLEIK
notes: Expressed as IgG in Expi293 cells; also called VHA/VKA1
B4: Clone 47 VHAback / Clone 47 VKA1 (antibody, V domains shown)
VH: QVQLVQSGAEVKKPGASVKVSCKASGYTFSNYLMNWVRQAPGQGLEWIGRIDPYDGDIDYNQNFKDRATLTVDKSASTAYMELSSLRSEDTAVYYCARGYGTAYGVDYWGQGTSVTVSS
VL: EIVLTQSPATLSLSPGERATLSCRASESVDNYGISFMNWFQQKPGQAPRLLIYAASRQGSGIPDRFSGSGSGTDFTLTISRLEPEDFAVYYCQQSKEVPWTFGGGTKLEIK
notes: Expressed as IgG in Expi293 cells; also called VHAback/VKA1
B5: Clone 47 VHA3 / Clone 47 VKA2 (antibody, V domains shown)
VH: QVQLVQSGAEVKKPGASVKVSCKASGYTFSNYLMNWVRQAPGQGLEWMGRIDPYDGDIDYNQNFKDRVTITRDKSASTAYMELSSLRSEDTAVYYCARGYGTAYGVDYWGQGTSVTVSS
VL: EIVLTQSPATLSLSPGERATLSCRASESVDNYGISFMNWYQQKPGQAPRLLIYAASRQGSGIPDRFSGSGSGTDFTLTISRLEPEDFAVYFCQQSKEVPWTFGGGTKLEIK
notes: Expressed as IgG in Expi293 cells; also called VHA3/VKA2
B6: Clone 47 VHA / Clone 47 VKA2 (antibody, V domains shown)
VH: QVQLVQSGAEVKKPGASVKVSCKASGYTFSNYLMNWVRQAPGQGLEWMGRIDPYDGDIDYNQNFKDRVTITRDTSASTAYMELSSLRSEDTAVYYCARGYGTAYGVDYWGQGTSVTVSS
VL: EIVLTQSPATLSLSPGERATLSCRASESVDNYGISFMNWYQQKPGQAPRLLIYAASRQGSGIPDRFSGSGSGTDFTLTISRLEPEDFAVYFCQQSKEVPWTFGGGTKLEIK
notes: Expressed as IgG in Expi293 cells; also called VHA/VKA2
B7: chimeric (Ch) Clone 47 (antibody, V domains shown)
VH: QVQLQQPGAELVRPGASVKLSCKASGYTFSNYLMNWVKQRPEQDLDWIGRIDPYDGDIDYNQNFKDKAILTVDKSSSTAYMQLSSLTSEDSAVYYCARGYGTAYGVDYWGQGTSVTVSS
VL: not shown
notes: Chimeric antibody with the murine Clone 47 variable domains; also called chimeric Clone 47

Tests used:
[1] = molecular target: T1, IL13RA2 on NCI-H1299 cells; assay: flow cytometry on NCI-H1299 cells, Alexa Fluor 488 anti-human IgG detection
Protocol: NCI-H1299 cells were diluted to 2×10⁶ cells/mL in assay buffer (0.1% BSA/0.1% Sodium Azide in PBS) and 50 μL added per well to a 96-well-plate. The HuCL47 and Clone 47 antibodies were diluted to a top concentration of 40 μg/ml (266 nM) of and diluted 1:4 for 7 dilutions as well as buffer only. 50 μL of the antibody were added to 50 μL of cells to give a concentration of 20 μg/ml. The plate was incubated for 1 hour at room temperature, after which the plate was centrifuged and washed three times. A Goat F(ab′)2 Anti-Human IgG Alexa Fluor 488-conjugated antibody was used (Life Technologies Cat. No. H10120) at a 1 in 250 dilution for detection in assay buffer, 50 μL added to cells and after one hour of incubation at room temperature the cells centrifuged and washed as before, fixed with 7.5% formaldehyde and analysed on the Flow cytometer, with data analysis carried out using FlowJo.
Chimeric clone 47 and HuCL47 were compared in terms of their: binding to NCI-H1299 Cells by standard FACS analysis using NCI-H1299 cells and unmodified purified antibodies. In vitro cytotoxicity analysis was performed on both A375 and NCI-1299 cells, using a pyrollobenzodiazepine dimer (PBD) warhead conjugated to chimeric clone 47 and HuCL47.

[2] = molecular target: T2, Recombinant human extracellular domain …; assay: Biacore (SPR), IL13RA2-6His on the sensor, bivalent antibody in solution
Source text: (§1) Biacore analysis using Human IL13RA2-6His coated sensor was used to calculate apparent affinity constants of the Clone 47 variants. A dilution series of the antibody variants were applied to the IL13RA2 sensor surface for 600 seconds […] to calculate the association constant Ka and buffer (HBS-EP+) was then applied for 1800 seconds to calculate the dissociation constant Kd. The ratio of the two constants will provide an apparent KD as the bivalency of the antibody will affect the binding kinetics.
(§2) Binding affinity of a chimeric (Ch) Clone 47 and select humanised variants to human IL13Rα2 was measured on Biacore.

[3] = molecular target: T2, Recombinant human extracellular domain …; assay: ELISA on coated IL13RA2-6His; antibody kept 8 days, column headed 'EC50 4° C.'
Protocol: (§3) Recombinant human extracellular domain of IL13RA2-6His (27-343) was obtained from Sino biological (Ref 10350-H08H). 50 μl of 1 μg/ml of human IL13RA2 in PBS was coated overnight at 4° C. on MaxiSorp ELISA plates. The following morning, the plate is washed with PBS/Tween20 0.02%. Each well has 200 μl of Superblock blocking buffer added and incubated at room temperature for 1 hour in an orbital shaker at 120 rpm. A dilution series of each antibody was prepared, with dilutions of each antibody variant in PBS/Tween20 0.02%. The antibodies are added to blocked antigen coated plates and incubated for 1 hour at room temperature with 120 rpm shaking on an orbital shaker. Plates are then washed 3-times with 200 μl of PBS/Tween20 0.02% and 75 μl of secondary antibody (Mouse anti-human-HRP diluted 1 in 4000 in PBS/Tween20 0.02%) is added to the wells and incubated for 1 hour at room temperature with 120 rpm shaking on an orbital shaker. Plates are then washed 3-times with 200 μl of PBS/Tween20 0.02%. To develop the ELISA, 75 μl of TMB-Turbo substrate is added to the wells and incubated at room temperature with 120 rpm shaking on an orbital shaker till a blue colour develops, the reaction is then stopped with the addition of 75 μl of 0.6 N HCl. Plates are read on the Envision at […] and curves are analysed using GraphPad prism software
(§4) Binding of the variants listed in Table 3 to IL13Rα2 was also assessed by ELISA following incubation at 4° C. or 45° C. for 8 days. […] These binding data also indicate that the humanised variants VHAback/VKA and VHA3/VKA2 have improved stability properties as compared to the chimeric Clone 47.

[4] = molecular target: T2, Recombinant human extracellular domain …; assay: ELISA on coated IL13RA2-6His; antibody kept 8 days, column headed 'EC50 45° C.'
Protocol: as §3, §4

[5] = molecular target: T2, Recombinant human extracellular domain …; assay: ELISA on plate-coated human IL13RA2-6His, anti-human-HRP detection
Protocol: as §3

[6] = molecular target: T2, Recombinant human extracellular domain …; assay: Biacore (SPR), apparent KD, IL13RA2-6His on the sensor, bivalent antibody in solution
Source text: as §1, §2

Binder | EC50 (read off the curve) [1] | koff [2] | kon [2] | EC50 [3] | EC50 [4] | EC50 (read off the curve) [5] | Kd [6]
B1 | ~0.04 µg/mL | 1.12e-05 s⁻¹ | 112000 M⁻¹ s⁻¹ | 0.0178 µg/mL | 0.0184 µg/mL | ~0.05 nM | 0.1 nM
B2 | – | 5.3e-06 s⁻¹ | 115000 M⁻¹ s⁻¹ | 0.0456 µg/mL | 0.0164 µg/mL | – | 0.05 nM
B3 | – | 2.65e-05 s⁻¹ | 124000 M⁻¹ s⁻¹ | 0.0581 µg/mL | 0.0123 µg/mL | – | 0.21 nM
B4 | – | – | – | 1.01 µg/mL | 0.0128 µg/mL | – | –
B5 | – | – | – | 0.0258 µg/mL | 0.0123 µg/mL | – | –
B6 | – | 8.2e-06 s⁻¹ | 131000 M⁻¹ s⁻¹ | 0.148 µg/mL | 0.0204 µg/mL | – | 0.06 nM
B7 | ~0.04 µg/mL | 6.58e-05 s⁻¹ | 125000 M⁻¹ s⁻¹ | 0.0777 µg/mL | 0.0168 µg/mL | ~0.04 nM | 0.53 nM
